# Assay results as given in FireProtDB (doi:10.1021/bi00015a036).
# B1: Ribonuclease wild type, P00648 (protein)
# chain: MMKMEGIALKKRLSWISVCLLVLVSAAGMLFSTAAKTETSSHKAHTEAQVINTFDGVADYLQTYHKLPDNYITKSEAQALGWVASKGNLADVAPGKSIGGDIFSNREGKLPGKSGRTWREADINYTSGFRNSDRILYSSDWLIYKTTDHYQTFTKIR
# Details: Bacillus amyloliquefaciens, Thermal, DSC, reversible: yes (~80%), whole UniProt chain shown
protein,measurement,setting,value
B1,Tm,"pH 7, PIPES 50 mM",54 °C
same,unfolding enthalpy (calorimetric),"pH 7, PIPES 50 mM",132 kcal/mol
same,Tm,"pH 10, CAPS 50 mM",48.6 °C
same,unfolding enthalpy (calorimetric),"pH 10, CAPS 50 mM",122 kcal/mol
same,Tm,"pH 10.3, CAPS 50 mM",48.4 °C
same,unfolding enthalpy (calorimetric),"pH 10.3, CAPS 50 mM",121 kcal/mol
same,Tm,"pH 10.5, CAPS 50 mM",47.4 °C
same,unfolding enthalpy (calorimetric),"pH 10.5, CAPS 50 mM",120 kcal/mol
